{
  "source": "patent US20230312724A1",
  "about": "(KADMON, published 2023)",
  "key": {"[1]": {"molecular_target": "T1, human B7-H4 expressed on cells (human, UniProt Q7Z7D3 25-282)", "T1 construct": "Transfected CHO cells or tumor cell lines that carry hB7-H4; also called cellular hB7-H4", "T1 sequence": "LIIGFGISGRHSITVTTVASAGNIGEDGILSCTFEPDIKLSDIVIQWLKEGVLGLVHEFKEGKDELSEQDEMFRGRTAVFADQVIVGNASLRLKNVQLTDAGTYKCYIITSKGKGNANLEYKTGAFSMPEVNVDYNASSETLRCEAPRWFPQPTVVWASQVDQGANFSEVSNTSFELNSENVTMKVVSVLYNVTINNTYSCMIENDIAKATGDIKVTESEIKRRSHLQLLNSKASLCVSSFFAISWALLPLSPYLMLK", "assay": "flow cytometry on SK-BR-3 cells", "method": "(§1) Cells were harvested, washed once, and then re-suspended to the concentration of 1×10⁶ cells/ml in ice cold FACS Buffer. 25 μl of cell suspension was added to each well of a 96-well round-bottom microliter plate. Serially diluted antibodies or fusion proteins were added to each well and incubated for 1 hour at 4° C. Cells were washed three times by centrifugation at 1500 rpm for 5 minutes, and then stained with secondary antibody (1:200 dilution) for 30 min at 4° C. in the dark. Cells were washed once, re-suspended in 100 μl PBS buffer and then analyzed using Guava Flow Cytometry EasyCyte system."}, "[2]": {"molecular_target": "T2, mB7-H4 (soluble mouse B7-H4, construct not named) (mouse, UniProt Q7TSP5 25-257, limits assumed)", "T2 sequence": "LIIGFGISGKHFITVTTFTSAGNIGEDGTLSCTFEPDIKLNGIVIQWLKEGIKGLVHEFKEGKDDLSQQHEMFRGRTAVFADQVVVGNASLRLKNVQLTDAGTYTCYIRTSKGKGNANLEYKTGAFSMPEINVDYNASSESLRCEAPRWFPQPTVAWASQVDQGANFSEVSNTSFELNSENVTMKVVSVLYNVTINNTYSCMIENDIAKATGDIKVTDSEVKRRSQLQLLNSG", "assay": "ELISA, mB7-H4", "procedure,_shortened": "(§2)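 Antibody titrations were applied for 1-1.5 h at RT to wells precoated (4° C overnight) with roughly 1-2 μg/ml human or mouse B7-H4-Fc or his-tagged protein, then blocked with 3% PBS+milk. Detection used HRP anti-hFab and TMB at OD450; EC50 from the curve.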"}, "[3]": {"molecular_target": "T1, human B7-H4 expressed on cells", "assay": "flow cytometry, MDA-MB-468 cells", "method": "as §1"}, "[4]": {"molecular_target": "T3, mouse B7-H4 expressed on cells (mouse, UniProt Q7TSP5 25-257)", "T3 construct": "also called cellular mB7-H4; mB7-H4/CT26", "T3 sequence": "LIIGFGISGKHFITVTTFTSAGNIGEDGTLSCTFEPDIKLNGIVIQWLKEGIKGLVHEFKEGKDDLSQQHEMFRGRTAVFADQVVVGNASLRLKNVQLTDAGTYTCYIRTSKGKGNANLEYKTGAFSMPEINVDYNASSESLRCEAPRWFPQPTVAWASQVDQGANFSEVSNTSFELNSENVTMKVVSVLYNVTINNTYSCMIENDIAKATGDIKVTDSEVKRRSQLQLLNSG", "assay": "flow cytometry, mB7-H4/CT26 cells", "procedure,_shortened": "(§3)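 Serially diluted antibodies or fusion proteins were incubated with cells at 1×10⁶ cells/ml in ice-cold FACS buffer for 1 h at 4 °C. After three washes, bound protein was detected with a 1:200 secondary antibody, 30 min at 4 °C in the dark, and read by flow cytometry.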"}, "[5]": {"molecular_target": "T4, IgV domain of human B7-H4-Fc (human)", "T4 construct": "also called hB7-H4 IgV domain", "T4 sequence (chain, as listed by the source)": "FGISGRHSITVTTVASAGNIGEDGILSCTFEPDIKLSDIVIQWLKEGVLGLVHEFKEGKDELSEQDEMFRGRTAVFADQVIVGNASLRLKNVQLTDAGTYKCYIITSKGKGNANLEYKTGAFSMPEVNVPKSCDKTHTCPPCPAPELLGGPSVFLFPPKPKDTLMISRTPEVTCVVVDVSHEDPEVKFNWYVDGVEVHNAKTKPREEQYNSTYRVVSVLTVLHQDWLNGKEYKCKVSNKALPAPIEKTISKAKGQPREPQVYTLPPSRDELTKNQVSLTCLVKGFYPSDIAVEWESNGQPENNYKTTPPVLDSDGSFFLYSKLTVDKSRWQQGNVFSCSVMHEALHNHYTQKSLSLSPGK", "assay": "ELISA, coated hB7-H4 IgV domain"}, "[6]": {"molecular_target": "T3, mouse B7-H4 expressed on cells", "assay": "flow cytometry on mB7H4-CT26 cells", "method": "as §1"}, "[7]": {"molecular_target": "T1, human B7-H4 expressed on cells", "assay": "flow cytometry, SK-BR-3 cells", "procedure,_shortened": "as §3"}, "human B7-H4-his [8]": {"molecular_target": "T5, human B7-H4-his (human, UniProt Q7Z7D3 25-259)", "T5 construct": "also called hB7-H4-his; hB7-H4 his; not shown: his tag", "T5 sequence": "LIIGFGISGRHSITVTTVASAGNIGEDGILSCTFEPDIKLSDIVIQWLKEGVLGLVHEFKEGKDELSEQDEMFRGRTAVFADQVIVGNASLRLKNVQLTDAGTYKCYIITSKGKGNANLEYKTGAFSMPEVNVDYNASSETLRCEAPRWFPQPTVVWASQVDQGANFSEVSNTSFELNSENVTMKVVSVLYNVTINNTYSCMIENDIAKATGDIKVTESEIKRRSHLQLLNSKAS", "assay": "ELISA, coated hB7-H4-his", "method": "(§4) About 1-2 μg/ml of human or mouse B7-H4-Fc (or his-tagged) was immobilized on ELISA plates (Immuno 2HB, Thermo scientific, cat #3455) at 4° C. overnight. After blocking the plates with 3% PBS+milk, serial diluted antibodies were added to the blocked plates and incubated at RT for 1-1.5 h. After washing the plates with PBS-T (0.05%), horse radish peroxidase (HRP)-conjugated antibody targeting the hFab was added to the plate. Signals were developed by adding 3,3′,5,5′-Tetramethylbenzidine (TMB (followed 1N of H₂SO₄ to stop the reaction. The OD at 450 nm was read by ELISA plate reader (Infinite M1000 from TECAN). GraphPad from Prism was used to plot OD450 vs. antibody concentration curve and to calculate the EC50 values."}, "human B7-H4-his [9]": {"molecular_target": "T5, human B7-H4-his", "assay": "ELISA on coated hB7-H4-his", "method": "as §4"}, "mouse B7-H4-Fc [10]": {"molecular_target": "T6, mouse B7-H4-Fc (mouse; human)", "T6 construct": "also called mB7-H4-Fc; mB7-H4-hFc", "T6 sequence (chain, as listed by the source)": "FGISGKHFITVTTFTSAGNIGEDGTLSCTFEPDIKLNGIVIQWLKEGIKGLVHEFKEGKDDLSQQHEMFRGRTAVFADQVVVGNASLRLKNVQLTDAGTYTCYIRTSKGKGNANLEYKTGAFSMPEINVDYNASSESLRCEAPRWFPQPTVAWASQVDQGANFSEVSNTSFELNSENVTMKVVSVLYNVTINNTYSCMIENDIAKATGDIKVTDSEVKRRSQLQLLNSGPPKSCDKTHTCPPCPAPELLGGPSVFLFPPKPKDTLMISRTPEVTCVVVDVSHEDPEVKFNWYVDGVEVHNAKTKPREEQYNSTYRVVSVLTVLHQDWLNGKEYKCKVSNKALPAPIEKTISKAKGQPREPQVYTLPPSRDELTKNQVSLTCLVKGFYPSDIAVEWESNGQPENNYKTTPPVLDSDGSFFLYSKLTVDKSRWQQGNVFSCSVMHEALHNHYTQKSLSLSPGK", "assay": "ELISA, coated mB7-H4-Fc (title on the sheet: Binding to mB7H4-Fc)", "method": "ELISA experiments were performed to determine binding to hB7-H4-Fc (FIG. 4A), hB7-H4-his (FIG. 4B), hB7-H4 IgV domain (FIG. 4C), and mB7-H4 IgV domain (FIG. 4D). Flow cytrometry experiments were performed to determine binding to CHO cells expressing hB7-H4 (FIG. 4E) or mB7-H4 (FIG. 4F). […] A cross-reactive IgV binding antibody was used as a control.\nas §4"}, "human B7-H4-Fc [11]": {"molecular_target": "T7, human B7-H4-Fc (human)", "T7 construct": "also called hB7-H4-Fc; hB7-H4 Fc", "T7 sequence (chain, as listed by the source)": "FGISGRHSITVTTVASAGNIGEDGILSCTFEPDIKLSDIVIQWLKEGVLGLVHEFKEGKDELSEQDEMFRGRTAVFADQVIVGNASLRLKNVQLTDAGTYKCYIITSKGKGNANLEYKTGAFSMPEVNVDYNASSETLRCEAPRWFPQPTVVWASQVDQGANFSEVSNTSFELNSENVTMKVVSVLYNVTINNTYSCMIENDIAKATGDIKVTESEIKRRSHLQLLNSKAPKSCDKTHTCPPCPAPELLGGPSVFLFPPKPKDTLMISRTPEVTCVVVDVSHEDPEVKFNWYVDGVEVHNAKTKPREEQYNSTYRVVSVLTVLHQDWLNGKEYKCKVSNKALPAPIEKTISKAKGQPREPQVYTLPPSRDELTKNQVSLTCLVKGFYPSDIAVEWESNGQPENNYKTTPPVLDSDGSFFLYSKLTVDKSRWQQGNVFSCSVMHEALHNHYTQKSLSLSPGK", "assay": "ELISA, coated hB7-H4-Fc", "method": "(§5) ELISA experiments were performed to determine binding to hB7-H4-Fc (FIG. 5A), hB7-H4-his (FIG. 5B), mB7-H4-Fc domain (FIG. 5C), hB7-H4 IgV domain (FIG. 5D), and hB7-H4 IgC domain (FIG. 5E). Flow cytrometry experiments were performed to determine binding to CHO cells expressing hB7-H4 (FIG. 5F) or mB7-H4 (FIG. 5G). […] A cross-reactive IgV binding antibody and an IgC binding antibody were used as controls.\nas §4"}, "human B7-H4-Fc [12]": {"molecular_target": "T7, human B7-H4-Fc", "assay": "ELISA on coated hB7-H4-Fc", "method": "as §4"}, "mouse B7-H4-Fc [13]": {"molecular_target": "T6, mouse B7-H4-Fc", "assay": "ELISA, coated mB7-H4-Fc", "method": "as §5, §4"}, "[14]": {"molecular_target": "T8, IgV domain of mouse B7-H4-Fc (mouse; human)", "T8 construct": "also called mB7-H4 IgV domain", "T8 sequence (chain, as listed by the source)": "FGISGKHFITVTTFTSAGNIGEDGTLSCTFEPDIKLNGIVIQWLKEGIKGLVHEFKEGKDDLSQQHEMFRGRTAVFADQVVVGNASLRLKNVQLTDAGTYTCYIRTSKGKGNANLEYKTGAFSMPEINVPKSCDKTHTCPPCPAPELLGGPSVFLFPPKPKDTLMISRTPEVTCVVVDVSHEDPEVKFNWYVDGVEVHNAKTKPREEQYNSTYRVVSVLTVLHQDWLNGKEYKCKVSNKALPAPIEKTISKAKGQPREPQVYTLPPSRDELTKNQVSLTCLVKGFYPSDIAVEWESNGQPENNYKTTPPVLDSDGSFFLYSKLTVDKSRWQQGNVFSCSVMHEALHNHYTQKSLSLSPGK", "assay": "ELISA on coated IgV domain of mB7-H4", "method": "as §4"}, "human B7-H4-Fc [15]": {"molecular_target": "T7, human B7-H4-Fc", "assay": "ELISA, coated hB7-H4-Fc", "procedure,_shortened": "as §2", "remark": "listed apart in the source"}},
  "data": [
    {"binder": "39A11/57G8 (antibody, human IgG1, V domains shown, 39A11 VH with 57G8 VL) VH: EVQLLESGGGLVQPGGSLRLSCAASGFTFSSYGMHWVRQAPGKGLEWVASISSSSGYIYYADSVKGRFTISRDNSKNTLYLQMNSLRAEDTAVYYCARASSGMDVWGQGTTVTVSS VL: DIQMTQSPSSLSASVGDRVTITCRASQSIRSYLNWYQQKPGKAPKLLIYYASSLQSGVPSRFSGSGSGTDFTLTISSLQPEDFATYYCQQYYSTPLTFGQGTKVEIK", "values": [
      {"measurement": "EC50 (read off the curve)", "setting": "[1]", "value": "~2", "unit": "nM"},
      {"measurement": "EC50", "setting": "[2]", "value": 0.096, "unit": "nM"},
      {"measurement": "EC50", "setting": "[3]", "value": 13.1, "unit": "nM"},
      {"measurement": "EC50", "setting": "[4]", "value": 1.22, "unit": "nM"},
      {"measurement": "EC50 (read off the curve)", "setting": "[5]", "value": "~0.1", "unit": "nM"},
      {"measurement": "EC50 (read off the curve)", "setting": "[6]", "value": "~2", "unit": "nM"},
      {"measurement": "EC50", "setting": "[7]", "value": 1.9, "unit": "nM"}
    ]},
    {"binder": "Control antibody 1 (antibody 20502 described in US20190085080A1) (antibody, V domains shown, also called (+) control Ab1; (+) Ab1) VH: QLQLQESGPGLVKPSETLSLTCTVSGGSIKSGSYYWGWIRQPPGKGLEWIGNIYYSGSTYYNPSLRSRVTISVDTSKNQFSLKLSSVTAADTAVYYCAREGSYPNQFDPWGQGTLVTVSS VL: EIVMTQSPATLSVSPGERATLSCRASQSVSSNLAWYQQKPGQAPRLLIYGASTRATGIPARFSGSGSGTEFTLTISSLQSEDFAVYYCQQYHSFPFTFGGGTKVEIK", "values": [
      {"measurement": "EC50 (read off the curve)", "setting": "human B7-H4-his [8]", "value": "~0.2", "unit": "nM"},
      {"measurement": "EC50 (read off the curve)", "setting": "human B7-H4-his [9]", "value": "~0.2", "unit": "nM"},
      {"measurement": "EC50 (read off the curve)", "setting": "mouse B7-H4-Fc [10]", "value": "~0.02", "unit": "µg/mL"},
      {"measurement": "EC50 (read off the curve)", "setting": "human B7-H4-Fc [11]", "value": "~0.07", "unit": "nM"},
      {"measurement": "EC50 (read off the curve)", "setting": "human B7-H4-Fc [12]", "value": "~0.1", "unit": "nM"},
      {"measurement": "EC50 (read off the curve)", "setting": "mouse B7-H4-Fc [13]", "value": "~0.1", "unit": "nM"},
      {"measurement": "EC50 (read off the curve)", "setting": "[14]", "value": "~0.2", "unit": "nM"},
      {"measurement": "EC50 (read off the curve)", "setting": "human B7-H4-Fc [15]", "value": "~0.1", "unit": "nM"}
    ]}
  ]
}
